Biological target: A3G-CTD2* (catalytically inactive), MST construct (human, UniProt Q9HC16 191-384, E259A)
Test: MST; 23 C; MST: 20 mM Bis-Tris pH 6.5, 100 mM NaCl, 1 mM DTT, 0.002% Tween 20, 50 nM protein, RED-tris-NTA dye, 23 C; NMR inhibition: 50 mM NaPO4 pH 6.5, 100 mM NaCl, 0.002% Tween 20, 1 mM DTT, 10 µM ZnCl2, 25 C
Conditions: protein: recombinant; tags: His (pET-28a); single strand

Sequence of A3G-CTD2* (catalytically inactive), MST construct (Q9HC16 191-384 E259A): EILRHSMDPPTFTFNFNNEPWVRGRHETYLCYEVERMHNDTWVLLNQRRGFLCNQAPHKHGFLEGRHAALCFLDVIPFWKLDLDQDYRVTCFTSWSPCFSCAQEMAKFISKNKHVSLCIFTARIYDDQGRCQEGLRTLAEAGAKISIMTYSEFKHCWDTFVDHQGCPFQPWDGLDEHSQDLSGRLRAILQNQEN

B1: 5'-AATCCCAAA (substrate) (ssDNA)
DNA: AATCCCAAA
Kd: 5.8 ± 0.8 µM

Source: PMC9675756, “Structure of the catalytically active APOBEC3G bound to a DNA oligonucleotide inhibitor reveals tetrahedral geometry of the transition state”
